# Data published in article PMC7954794 (2021).
# B1: S. cerevisiae Abp1 (full length; SH3 domain 535-592 mutated) / Hua2 (parent complex)
# chain 1: MALEPIDYTTHSREIDAEYLKIVRGSDPDTTWLIISPNAKKEYEPESTGSSFHDFLQLFDETKVQYGLARVSPPGSDVEKIIIIGWCPDSAPLKTRASFAANFAAVANNLFKGYHVQVTARDEDDLDENELLMKISNAAGARYSIQTSSKQQGKASTPPVKKSFTPSKSPAPVSKKEPVKTPSPAPAAKISSRVNDNNDDDDWNEPELKERDFDQAPLKPNQSSYKPIGKIDLQKVIAEEKAKEDPRLVQKPTAAGSKIDPSSDIANLKNESKLKRDSEFNSFLGTTKPPSMTESSLKNDDDKVIKGFRNEKSPAQLWAERKAKQNSGNAETKAEAPKPEVPEDEPEGEPDVKDLKSKFEGLAASEKEEEEMENKFAPPPKKSEPTIISPKPFSKPQEPVKAEEAEQPKTDYKKIGNPLPGMHIEADNEEEPEENDDDWDDDEDEAAQPPLPSRNVASGAPVQKEEPEQEEIAPSLPSRNSIPAPKQEEAPEQAPEEEIEEEAEEAAPQLPSRSSAAPPPPPRRATPEKKPKENPWATAEYDYDAAEDNELTFVENDKIINIEFVDDDWWLGELEKDGSKGLFPSNYVSLGN
# chain 2: MQQTKFGKMYLDHDSVVEYSEDEIVEADRITLGYKKRLSMIENQMRHLLEDFSLDVQQIEPILADLQKYYDAFLQLLQKRNKSLQCKRSTHQPVPSPMNSQTSTNAKVNLSGKLMKFQLNSVQKFDEENILRILQNKIEFEHYFQIDKGKKQKVLLLAVYQCLNGPTRLHKVLNIEGIIHNNSIRTILGKQVSSSKWTVFLYDVKLVLLAHRQDVPNLETSKMIVRYGDLFPCALYFKDHTAY
# Variants of: B1
# Assay: DHFR protein-fragment complementation in yeast (Abp1-DHFR F[1,2] x partner-DHFR F[3]), deep mutational scanning, second methotrexate selection vs reference; S. cerevisiae, DHFR-PCA selection in liquid with methotrexate at 30 C, two 72 h selections (the score uses the second); reference = the pre-selection culture
row,screen value,Variant
1,"-0.106 DMS score: mean over two replicates of log2(f_test/f_ref + 0.5)/ln 2, minus the synonymous-codon median (not a log2 …",chain 1 L551I
2,"0.204 DMS score: mean over two replicates of log2(f_test/f_ref + 0.5)/ln 2, minus the synonymous-codon median (not a log2 …",chain 1 K558L
3,"-0.477 DMS score: mean over two replicates of log2(f_test/f_ref + 0.5)/ln 2, minus the synonymous-codon median (not a log2 …",chain 1 Y587H
4,"-0.578 DMS score: mean over two replicates of log2(f_test/f_ref + 0.5)/ln 2, minus the synonymous-codon median (not a log2 …",chain 1 Y587I
5,"0.473 DMS score: mean over two replicates of log2(f_test/f_ref + 0.5)/ln 2, minus the synonymous-codon median (not a log2 …",chain 1 P535D
6,"1.51 DMS score: mean over two replicates of log2(f_test/f_ref + 0.5)/ln 2, minus the synonymous-codon median (not a log2 …",chain 1 P535V
7,"0.602 DMS score: mean over two replicates of log2(f_test/f_ref + 0.5)/ln 2, minus the synonymous-codon median (not a log2 …",chain 1 V554E
8,"-0.0016 DMS score: mean over two replicates of log2(f_test/f_ref + 0.5)/ln 2, minus the synonymous-codon median (not a log2 …",chain 1 V554M
9,"0.925 DMS score: mean over two replicates of log2(f_test/f_ref + 0.5)/ln 2, minus the synonymous-codon median (not a log2 …",chain 1 V554R
10,"0.269 DMS score: mean over two replicates of log2(f_test/f_ref + 0.5)/ln 2, minus the synonymous-codon median (not a log2 …",chain 1 V554D
11,"0.0071 DMS score: mean over two replicates of log2(f_test/f_ref + 0.5)/ln 2, minus the synonymous-codon median (not a log2 …",chain 1 D548N
12,"-0.724 DMS score: mean over two replicates of log2(f_test/f_ref + 0.5)/ln 2, minus the synonymous-codon median (not a log2 …",chain 1 D548I
13,"0.159 DMS score: mean over two replicates of log2(f_test/f_ref + 0.5)/ln 2, minus the synonymous-codon median (not a log2 …",chain 1 D548A
14,"0.434 DMS score: mean over two replicates of log2(f_test/f_ref + 0.5)/ln 2, minus the synonymous-codon median (not a log2 …",chain 1 D548T
15,"0.053 DMS score: mean over two replicates of log2(f_test/f_ref + 0.5)/ln 2, minus the synonymous-codon median (not a log2 …",chain 1 D548V
16,"-2.24 DMS score: mean over two replicates of log2(f_test/f_ref + 0.5)/ln 2, minus the synonymous-codon median (not a log2 …",chain 1 E547H

row,screen value,Variant
1,"-0.535 DMS score: mean over two replicates of log2(f_test/f_ref + 0.5)/ln 2, minus the synonymous-codon median (not a log2 …",chain 1 G578R
2,"-0.28 DMS score: mean over two replicates of log2(f_test/f_ref + 0.5)/ln 2, minus the synonymous-codon median (not a log2 …",chain 1 S579K
3,"0.625 DMS score: mean over two replicates of log2(f_test/f_ref + 0.5)/ln 2, minus the synonymous-codon median (not a log2 …",chain 1 E573C
4,"-0.693 DMS score: mean over two replicates of log2(f_test/f_ref + 0.5)/ln 2, minus the synonymous-codon median (not a log2 …",chain 1 E555F
5,"0.279 DMS score: mean over two replicates of log2(f_test/f_ref + 0.5)/ln 2, minus the synonymous-codon median (not a log2 …",chain 1 N556T
6,"0.625 DMS score: mean over two replicates of log2(f_test/f_ref + 0.5)/ln 2, minus the synonymous-codon median (not a log2 …",chain 1 N556G
7,"-0.352 DMS score: mean over two replicates of log2(f_test/f_ref + 0.5)/ln 2, minus the synonymous-codon median (not a log2 …",chain 1 V565N
8,"-1.58 DMS score: mean over two replicates of log2(f_test/f_ref + 0.5)/ln 2, minus the synonymous-codon median (not a log2 …",chain 1 V565H
9,"-2.71 DMS score: mean over two replicates of log2(f_test/f_ref + 0.5)/ln 2, minus the synonymous-codon median (not a log2 …",chain 1 V565R
10,"-0.495 DMS score: mean over two replicates of log2(f_test/f_ref + 0.5)/ln 2, minus the synonymous-codon median (not a log2 …",chain 1 I562L
11,"0.254 DMS score: mean over two replicates of log2(f_test/f_ref + 0.5)/ln 2, minus the synonymous-codon median (not a log2 …",chain 1 Y543W
12,"-0.753 DMS score: mean over two replicates of log2(f_test/f_ref + 0.5)/ln 2, minus the synonymous-codon median (not a log2 …",chain 1 S589F
13,"1.04 DMS score: mean over two replicates of log2(f_test/f_ref + 0.5)/ln 2, minus the synonymous-codon median (not a log2 …",chain 1 S589R
14,"0.299 DMS score: mean over two replicates of log2(f_test/f_ref + 0.5)/ln 2, minus the synonymous-codon median (not a log2 …",chain 1 S589C
15,"0.273 DMS score: mean over two replicates of log2(f_test/f_ref + 0.5)/ln 2, minus the synonymous-codon median (not a log2 …",chain 1 S589G
16,"0.254 DMS score: mean over two replicates of log2(f_test/f_ref + 0.5)/ln 2, minus the synonymous-codon median (not a log2 …",chain 1 S589T

# The next lines start with the variant.
row,Variant,screen value
1,chain 1 K558Q,"-0.388 DMS score: mean over two replicates of log2(f_test/f_ref + 0.5)/ln 2, minus the synonymous-codon median (not a log2 …"
2,chain 1 K558E,"-0.942 DMS score: mean over two replicates of log2(f_test/f_ref + 0.5)/ln 2, minus the synonymous-codon median (not a log2 …"
3,chain 1 K558T,"0.186 DMS score: mean over two replicates of log2(f_test/f_ref + 0.5)/ln 2, minus the synonymous-codon median (not a log2 …"
4,chain 1 K558C,"-0.507 DMS score: mean over two replicates of log2(f_test/f_ref + 0.5)/ln 2, minus the synonymous-codon median (not a log2 …"
5,chain 1 Y587V,"-1.17 DMS score: mean over two replicates of log2(f_test/f_ref + 0.5)/ln 2, minus the synonymous-codon median (not a log2 …"
6,chain 1 P535M,"1.02 DMS score: mean over two replicates of log2(f_test/f_ref + 0.5)/ln 2, minus the synonymous-codon median (not a log2 …"
7,chain 1 P535E,"1.04 DMS score: mean over two replicates of log2(f_test/f_ref + 0.5)/ln 2, minus the synonymous-codon median (not a log2 …"
8,chain 1 P535Q,"1.11 DMS score: mean over two replicates of log2(f_test/f_ref + 0.5)/ln 2, minus the synonymous-codon median (not a log2 …"
9,chain 1 P535S,"0.342 DMS score: mean over two replicates of log2(f_test/f_ref + 0.5)/ln 2, minus the synonymous-codon median (not a log2 …"
10,chain 1 F564E,"0.712 DMS score: mean over two replicates of log2(f_test/f_ref + 0.5)/ln 2, minus the synonymous-codon median (not a log2 …"
11,chain 1 F564Q,"-1.38 DMS score: mean over two replicates of log2(f_test/f_ref + 0.5)/ln 2, minus the synonymous-codon median (not a log2 …"
12,chain 1 F564P,"-2.61 DMS score: mean over two replicates of log2(f_test/f_ref + 0.5)/ln 2, minus the synonymous-codon median (not a log2 …"
13,chain 1 V554Y,"0.89 DMS score: mean over two replicates of log2(f_test/f_ref + 0.5)/ln 2, minus the synonymous-codon median (not a log2 …"
14,chain 1 V554N,"0.128 DMS score: mean over two replicates of log2(f_test/f_ref + 0.5)/ln 2, minus the synonymous-codon median (not a log2 …"
15,chain 1 V554F,"0.446 DMS score: mean over two replicates of log2(f_test/f_ref + 0.5)/ln 2, minus the synonymous-codon median (not a log2 …"
16,chain 1 D548K,"-0.245 DMS score: mean over two replicates of log2(f_test/f_ref + 0.5)/ln 2, minus the synonymous-codon median (not a log2 …"
17,chain 1 E547S,"-2.1 DMS score: mean over two replicates of log2(f_test/f_ref + 0.5)/ln 2, minus the synonymous-codon median (not a log2 …"
18,chain 1 G578A,"-0.527 DMS score: mean over two replicates of log2(f_test/f_ref + 0.5)/ln 2, minus the synonymous-codon median (not a log2 …"
19,chain 1 S579N,"0.51 DMS score: mean over two replicates of log2(f_test/f_ref + 0.5)/ln 2, minus the synonymous-codon median (not a log2 …"
20,chain 1 S579C,"-0.407 DMS score: mean over two replicates of log2(f_test/f_ref + 0.5)/ln 2, minus the synonymous-codon median (not a log2 …"
21,chain 1 L590F,"-0.882 DMS score: mean over two replicates of log2(f_test/f_ref + 0.5)/ln 2, minus the synonymous-codon median (not a log2 …"
22,chain 1 E573I,"-0.283 DMS score: mean over two replicates of log2(f_test/f_ref + 0.5)/ln 2, minus the synonymous-codon median (not a log2 …"

row,Variant,screen value
1,chain 1 E573V,"0.415 DMS score: mean over two replicates of log2(f_test/f_ref + 0.5)/ln 2, minus the synonymous-codon median (not a log2 …"
2,chain 1 E573S,"-0.47 DMS score: mean over two replicates of log2(f_test/f_ref + 0.5)/ln 2, minus the synonymous-codon median (not a log2 …"
3,chain 1 E555M,"0.105 DMS score: mean over two replicates of log2(f_test/f_ref + 0.5)/ln 2, minus the synonymous-codon median (not a log2 …"
4,chain 1 A546G,"0.413 DMS score: mean over two replicates of log2(f_test/f_ref + 0.5)/ln 2, minus the synonymous-codon median (not a log2 …"
5,chain 1 A546V,"-0.179 DMS score: mean over two replicates of log2(f_test/f_ref + 0.5)/ln 2, minus the synonymous-codon median (not a log2 …"
6,chain 1 W569Q,"-2.81 DMS score: mean over two replicates of log2(f_test/f_ref + 0.5)/ln 2, minus the synonymous-codon median (not a log2 …"
7,chain 1 D557E,"-0.885 DMS score: mean over two replicates of log2(f_test/f_ref + 0.5)/ln 2, minus the synonymous-codon median (not a log2 …"
8,chain 1 N556M,"-0.751 DMS score: mean over two replicates of log2(f_test/f_ref + 0.5)/ln 2, minus the synonymous-codon median (not a log2 …"
9,chain 1 N556L,"-0.482 DMS score: mean over two replicates of log2(f_test/f_ref + 0.5)/ln 2, minus the synonymous-codon median (not a log2 …"
10,chain 1 N556C,"0.444 DMS score: mean over two replicates of log2(f_test/f_ref + 0.5)/ln 2, minus the synonymous-codon median (not a log2 …"
11,chain 1 V565W,"0.964 DMS score: mean over two replicates of log2(f_test/f_ref + 0.5)/ln 2, minus the synonymous-codon median (not a log2 …"
12,chain 1 V565P,"-0.0718 DMS score: mean over two replicates of log2(f_test/f_ref + 0.5)/ln 2, minus the synonymous-codon median (not a log2 …"
13,chain 1 V565Q,"-0.327 DMS score: mean over two replicates of log2(f_test/f_ref + 0.5)/ln 2, minus the synonymous-codon median (not a log2 …"
14,chain 1 Y543F,"0.735 DMS score: mean over two replicates of log2(f_test/f_ref + 0.5)/ln 2, minus the synonymous-codon median (not a log2 …"
15,chain 1 S589Q,"0.838 DMS score: mean over two replicates of log2(f_test/f_ref + 0.5)/ln 2, minus the synonymous-codon median (not a log2 …"
16,chain 1 S589D,"0.916 DMS score: mean over two replicates of log2(f_test/f_ref + 0.5)/ln 2, minus the synonymous-codon median (not a log2 …"
17,chain 1 S589W,"0.0382 DMS score: mean over two replicates of log2(f_test/f_ref + 0.5)/ln 2, minus the synonymous-codon median (not a log2 …"
18,chain 1 S589H,"0.128 DMS score: mean over two replicates of log2(f_test/f_ref + 0.5)/ln 2, minus the synonymous-codon median (not a log2 …"
19,chain 1 T552K,"-0.621 DMS score: mean over two replicates of log2(f_test/f_ref + 0.5)/ln 2, minus the synonymous-codon median (not a log2 …"
20,chain 1 D567A,"-2.23 DMS score: mean over two replicates of log2(f_test/f_ref + 0.5)/ln 2, minus the synonymous-codon median (not a log2 …"
21,chain 1 D544V,"0.356 DMS score: mean over two replicates of log2(f_test/f_ref + 0.5)/ln 2, minus the synonymous-codon median (not a log2 …"
